# According to the DeepSol protein solubility set:
# Assay: soluble on expression in E. coli; label from the status in PepcDB or PDB records
row,Sequence,soluble on expression in E. coli
1,MDNRVREACQYISDHLADSNFDIASVAQHVCLSPSRLSHLFRQQLGISVLSWREDQRISQAKLLLSTTRMPIATVGRNVGFDDQLYFSRVFKKCTGASPSEFRAGCE,soluble
2,MNGFDGLQEEESSDLKSIQKELAILKLKLSEQESLFNSITENTLAGYWIWDIPLNTMFISAHLKSMLGYADHELENSPETINMLMHPSDLPATYALLSKHVESDGKVPFEIEVRYKHKNGSIVWVICSGNIVTRDENGKPSKMIGCHLDNTELKKAQGVQKYTEELERKNVEMEQFAYVASHDLQEPLNTIQGFIALLSAKLEDAPDPDVTQYLHYINQSTLRMTNLIKGLLEYSRIGKNVVMSKIDCNQVITDVLMDLHIQVEETQADIEVTPLPFVMGYDIELRILFQNLISNALKFSVRRPVIKIYSVVEGGYFKFSVADNGIGIDPQFREKIFKLYQQLHPKSTYEGNGLGLAQCFKIVTELHSGSIWVESNEKEGSIFHFTIPYNA,not soluble
3,MANTGSLVLLRHGESDWNALNLFTGWVDVGLTDKGQAEAVRSGELIAEHDLLPDVLYTSLLRRAITTAHLALDSADRLWIPVRRSWRLNERHYGALQGLDKAETKARYGEEQFMAWRRSYDTPPPPIERGSQFSQDADPRYADIGGGPLTECLADVVARFLPYFTDVIVGDLRVGKTVLIVAHGNSLRALVKHLDQMSDDEIVGLNIPTGIPLRYDLDSAMRPLVRGGTYLDPEAAAAGAAAVAGQGRGGVPRGAAALEHHHHHH,soluble
4,MGSDKIHHHHHHMKISIIGAGSVRFALQLVGDIAQTEELSREDTHIYMMDVHERRLNASYILARKYVEELNSPVKIVKTSSLDEAIDGADFIINTAYPYDPRYHDSGSQRWDEVTKVGEKHGYYRGIDSQELNMVSTYTYVLSSYPDMKLALEIAEKMKKMAPKAYLMQTANPVFEITQAVRRWTGANIVGFCHGVAGVYEVFEKLDLDPEEVDWQVAGVNHGIWLNRFRYRGEDAYPLLDEWIEKKLPEWEPKNPWDTQMSPAAMDMYKFYGMLPIGDTVRNGSWKYHYNLETKKKWFGKFGGIDNEVERPKFHEQLRRARERLIKLAEEVQQNPGMKLTEEHPEIFPKGKLSGEQHIPFINAIANNKRVRLFLNVENQGTLKDFPDDVVMELPVWVDCCGIHREKVEPDLTHRIKIFYLWPRILRMEWNLEAYISRDRKVLEEILIRDPRTKSYEQIVQVLDEIFNLPFNEELRRYYKEKL,soluble
5,DMPAEIVNLIGKMRFHTVYGQNLLQHSREVAMLAGLMAAELKLDAKQAKRAGLLHDIGLVLPETEMPHALAGMEFLKKFNMSPVVLNAIGAHHGEVEKASPIADLVDAANIVSLSRPGARGAVTAEGNVKRLESLEEIARTFPGVIKTYALQAGREIRVIVEGDNVSD,not soluble
6,MNKILIAAASSGTGKTTVTLGIMHALKKRGLRVQPFKVGPDYIDTNYHQAITGVASINLDSFLIDDDAMLAALFEKHGQSADISVIEGVMGLFDGLGIDRDNSSTSFIAKCTKTPVILVVDGKAISTSAAAIVDGFNRFDPELTIAGVIINRVASENHFSLIKGAIERYTDVPVLGYLPKNAAVALPERHLGLVPKEEMTELETKWEVLGDLIAEHVDLDRLLAISKTGAKLTVHPPEIQVPDFSGMRVAYALDAAFHFYYQDNLDFIRSTGATLIPFSPLEEREVPDADFIYIGGGFPEVFAERLAKNKSMHESILAAHEQGKPIYAECGGLMYLGSSLEMEAESYEMVGVFDGVSKMTTRLRKFGYCIAEPLEDTLLGKKGTAIRGHEFHHSVFETTEPTRMKLTKKRDGETVKEWHGGYQKGNTFASYLHIHFYQNLAMITHMFGAIERLEHHHHHH,soluble
7,MSLQLPISQYNELLQKKLEKLTALLHPFNAPDIQVFDSPTSHYRMRAEFRIWHEQDDFYHIMFDQATLQRYRVDEFPIASMLINRMMQTLLPLLKQQEVLHKKLFQIDYLSTLSNKIIVSLLYHKTLTEEWESAAKNLKDLLEKQDFDVQIIGRASKQKICFEQDYVDEVLPVNGRNYVYRQVENSFTQPNATVNCKMLEWAIDCTQNSEGDLLELYCGNGNFSIALAQNFRKVLATEIAKPSVAAAQFNIAENKVDNLQIIRMSAEEFTQAMNGVRAFNRLKGIDLKSYECNTIFVDPPRAGLDPDTVKLVQNYDRILYISCNPHTLCDNLVELSKTHRIEKAALFDQFPYTDHMESGLWLIRKEGHHHHHH,soluble
8,MGSDKIHHHHHHMDVLVVGATGTLGRQIARRALDEGHRVRCLVRSPKRGNFLREWGCDLVRGDLTQPESLTFALEGIEAVIDAATTRSTDSLSCYDVDWQGKVNLIKAATEAGVQRFVFCSIIDAEKHRDVPLMDIKYCTEEFLRQSGLNYTILRLAGFMQGLIAEFAIPVLEGRTAFITQDSDPIAYLSTLDIARFAVAALTTPATEKQTLPVVGPKAWSGLEIFRLCERLSGKETKIARLPLATVSAMKRFFRFFQWGWNIADRLAFSEVMACGRPFTADMAATYTAFGIDPAEITGLESYLNDYFSVMLRRLKELEFDQKKDKKKKVPF,not soluble
9,MAHHHHHHMKGHIFYDVTEKGTPPAEYFVSSTGWGMSVVSPPNVGNCDEWETQVKAERIIVNCPDEMDVKAMCAWMERDGTTDGQAECWKMVEERMDKVGPIPRHIFDANKFVAHSAAIEDALDGINSRDGERHFTHRGVRLWYSGDPPQKVVSVVRARGEFGAGGFLNAAISVCLGRRIAHYFGGRDE,not soluble
10,MGSDKIHHHHHHMFPLVTITGEPFERGQQYGAATAALIRHSIASYARLFAYRRGMDWEAVQQAALAYEPLLHDVAPDLLTEMRGIAVGASRTLAEIIALNVRTELLAGVGVGFHHPEAAAALARNRAAGVPQHQEQLPATPATGSDDGECTTAAASPPATANGRVWLAQTWDWQGDQRAACVLLRVSGPDTPTLLTLTEAGMVAKIGLNEAGIAVGLNLLRSRADGQQQGMPVHVLLRQMLQSTDTVTARRLVSQIPAAGSSCITLAGADGELVALELTPTGIAEIPAQEGLLAHANHCLDGGTAAGECPLEPTSTTRERYGRAWELLHAAAGQIDLDVLQVILRDHDGAPRCICRHPDPRVAAVDRNESVCGVIIDLRGRTMHVAANIPCQAPFVPFML,not soluble
11,MQLEDYTAATNIAKKDFMPGTTKIDRALTGQVAGLQVKRSSGMPGEGSYYNLRGIRTLTGDNAPLIVINGVPHMPDKTPSALIDGFTRDIFQFYHLQDIQNITILKGAEAAMYGSMGSNGVILIETDGTASN,not soluble
12,MKDKIIDNAITLFSEKGYDGTTLDDIAKSVNIKKASLYYHFDSKKSIYEQSVKCCFDYLNNIIMMNQNKSNYSIDALYQFLFEFIFDIEERYIRMYVQLSNTPEEFSGNIYGQIQDLNQSLSKEIAKFYDESKIKMTKEDFQNLILLFLESWYLKASFSQKFGAVEESKSQFKDEVYSLLNIFLKK,not soluble
13,MAHHHHHHSLSILVTRPSPAGEELVSRLRTLGQVAWHFPLIEFSPGQQLPQLADQLAALGESDLLFALSQHAVAFAQSQLHQQDRKWPRLPDYFAIGRTTALALHTVSGQKILYPQDREISEVLLQLPELQNIAGKRALILRGNGGRELIGDTLTARGAEVTFCECYQRCAIHYDGAEEAMRWQAREVTMVVVTSGEMLQQLWSLIPQWYREHWLLHCRLLVVSERLAKLARELGWQDIKVADNADNDALLRALQEG,soluble
14,GPGSMEVNATLIDCCDPQKPSRVLFHFLILDAPSPSNLPTYIKELQHRGVRHLVRVCGPTYDATLVKSRGIDVHSWPFDDGAPPTRAVLDSWLKLLDTELARQQEDPSVPPPTIGVHCVAGLGRAPILVALALVEYGNVSALDAIALIREKRKGAINQTQMHWITKYKRRHQGAGCVIM,soluble
15,MSLNAQLNDLGPIKAVIFDMDGLLLDTEGIYTEITQLIAERYGRTYDWTIKQNIIGRGAGDLARYVVQALDLPISAEEFLVMREPLMRERFPRAQAMPGAQELVRHLKEHRIPIAVGTSSSQMSFGEKTTRHGDWFALFDTIVTADDPEVTAAKPAPDIFLTAARRLGVAPAECLVFEDSPFGVTAARAAGMSVIAVPDPAMADSKFAHAHGIIRSLKGFQPAACGLPHLHWDEGHHHHHH,soluble
16,MKKDTDCTEILVGKTASMDGSTIVARNEDGYGPINPIKFIVHEAHDQTNASYTSVTTGVTVPLPDHAYRYTATPQADQSDGQYEEAGINELNVGMSATETTATNARVLGYDPLVHDGVDEEAMVTLVLPYIKSAKEGVQRLGALIEKYGTGESNSIAFNDHDDIWLFETAGGHHWGAVRMPEDTYAIVPNQTVVQEMDLNDTDNFLGASDLVDFVEKYHLNPTPGHFNFREIFGTQSEADAYYNTPRTWYGQKLFNPEIEQNPTDQNMPLFRQPSKKLAIEDVQFFLSSHYNGTPYDPFGTFASGNAREQTRYRSIAMDRNQCSSILQIRNDVPAKQAAIQWIALGFFAYAPYVPFFTNINDTPIDYRNTTSTVSVDNVYWLSKTLSVLIEPHWHEFAETVNAYRDECQSYARGRVAATDAAIAGNPTDFLTKANSETAAEISNRTHALFDTLVKQGLLLSKTTWEKGQNLLEHHHHHH,not soluble
17,MKKKKLFLGTIISCVVLALSACGSSDNVVTSKVGNITEKELSKELRQKYGESTLYQMVLSKALLDKYKVSDEEAKKQVEEAKDKMGDNFKSTLEQVGLKNEDELKEKMKPEIAFEKAIKATVTEKDVKDNYKPEMKVSHILVKDEKTAKEVKEKVNNGEDFAALAKQYSEDTGSKEQGGEITGFAPGQTVKEFEEAAYKLDAGQVSEPVKTTYGYHIIKVTDKKELKPFDEVKDSIRKDIEQQRLQDTTGKWKQQVVNELLKDADIKVNDKEFKNTFEFLEKK,not soluble
18,GQDRSEATLIKRFKGEGVRYKAKLIGIDEVSAARGDKLCQDSMMKLKGVVAGARSKGEHKQKIFLTISFGGIKIFDEKTGALQHHHAVHEISYIAKDITDHRAFGYVCGKEGNHRFVAIKTAQAAEPVILDLRDLFQLIYELKQREELEKKA,soluble
19,GPGSFIDPPSDQGMSDAFYQLLYFGAVDDGLQLTDFGRRMAVLPVDVCLARMLLMAPKHGCGADAAVVAAMLEAGNAFSRPPSRLAEAREAHARFDNADGDHVALFRVFHAYFKNQQNGKRFCYENYLRHQTLQQAVQVYKQLRRLMSQLMIPVQSTYIPEREYVDTVALRKAVLEGFFTQVAFLTPVAPITH,not soluble
20,MGSDKIHHHHHHMKQIAVVSGKGGTGKTTFTASLGVLLENSLLADCDVDASNLYILFPGDPVEEHEYYRGKKAVIDQEKCDRCGICERVCRFDAIIPGEKYGVDQYACEGCNACVVSCPRNAITLVQSLAGRYFFAWSGGKPIVYARLSPGEENSGGLVAEVRKLALEKAKELKRDYVIIDGAPGIGCSATSSIVGVNYVVVVTEPTMSGLHDLKRIVETLKCLKREFGIVINKYDINSVVSREIEDYCLSEGLDLLGKIPFDETVVRASVECKPVVTYENSPAAESIKKIVEKIIEKIS,not soluble
21,MGSDKIHHHHHHMKTDITVVKASHLQPFISFLDKVGAPLDRLLNQVNLHADYFSDQENLIAEAPFWALLEHASYSQGIEDLGFQVTEQLSLDSFGVFGAKVMQADSLHQALTTFIRDMGQQSNCPPFWLMEQGAFVWFCRLGTQGIKKGHWPIEQHVISLMIQLVRGFTTATWTPPKVHLQTHTLKGADNTASFSNSQILINKAFTGICISKSLLLNGAVIKPKDRVAEEVAHQMTISTVNSHVIKELLMQSCANQPLNAQQIANSLGLNIRHMQRLLKEEGCSYRELSEQVLFKQSQVMLSTEQLSVLEVALALGYSDAANFTRAFKRWSGLSPTQYKLLLN,not soluble
